Measured values published in patent US20150344570A1 (published 2015).

B1: GpH7-A5/GpH7-B3 variant S324_01G/GpL16-k0 (He Ab) (antibody, human IgG1, kappa)
heavy 1: not shown
heavy 2: not shown
light: DIVMTQSPLSLPVTPGEPASISCQASESLVHSNRNTYLHWYLQKPGQSPQLLIYKVSNRFSGVPDRFSGSGSGTDFTLKISRVEAEDVGVYYCSQNTHVPPTFGQGTKVEIERTVAAPSVFIFPPSDEQLKSGTASVVCLLNNFYPREAKVQWKVDNALQSGNSQESVTEQDSKDSTYSLSSTLTLSKADYEKHKVYACEVTHQGLSSPVTKSFNRGEC
notes: Heterodimerized anti-glypican-3 antibody; the alteration stands only in the GpH7-B3 chain
B2: GpH7-A5/GpH7-B3 variant S239_10E/GpL16-k0 (He Ab) (antibody, human IgG1, kappa)
heavy 1: not shown
heavy 2: not shown
light: B1 light
notes: as for B1
B3: GpH7-A5/GpH7-B3 variant S239_18N/GpL16-k0 (He Ab) (antibody, human IgG1, kappa)
heavy 1: not shown
heavy 2: not shown
light: B1 light
notes: as for B1
B4: GpH7-A5/GpH7-B3 variant S298_03V/GpL16-k0 (He Ab) (antibody, human IgG1, kappa)
heavy 1: not shown
heavy 2: not shown
light: B1 light
notes: as for B1
B5: GpH7-A5/GpH7-B3 variant S324_06M/GpL16-k0 (He Ab) (antibody, human IgG1, kappa)
heavy 1: not shown
heavy 2: not shown
light: B1 light
notes: as for B1
B6: GpH7-A5/GpH7-B3 variant S324_09D/GpL16-k0 (He Ab) (antibody, human IgG1, kappa)
heavy 1: not shown
heavy 2: not shown
light: B1 light
notes: as for B1
B7: GpH7-A5/GpH7-B3 variant S324_14T/GpL16-k0 (He Ab) (antibody, human IgG1, kappa)
heavy 1: not shown
heavy 2: not shown
light: B1 light
notes: as for B1
B8: GpH7-A5/GpH7-B3 variant S324_20W/GpL16-k0 (He Ab) (antibody, human IgG1, kappa)
heavy 1: not shown
heavy 2: not shown
light: B1 light
notes: as for B1
B9: GpH7-A5/GpH7-B3 variant S337_01G/GpL16-k0 (He Ab) (antibody, human IgG1, kappa)
heavy 1: not shown
heavy 2: not shown
light: B1 light
notes: as for B1
B10: GpH7-A5/GpH7-B3 variant S337_16H/GpL16-k0 (He Ab) (antibody, human IgG1, kappa)
heavy 1: not shown
heavy 2: not shown
light: B1 light
notes: as for B1
B11: GpH7-A5/GpH7-B3 variant T335_05P/GpL16-k0 (He Ab) (antibody, human IgG1, kappa)
heavy 1: not shown
heavy 2: not shown
light: B1 light
notes: as for B1
B12: GpH7-A5/GpH7-B3 variant T335_06M/GpL16-k0 (He Ab) (antibody, human IgG1, kappa)
heavy 1: not shown
heavy 2: not shown
light: B1 light
notes: as for B1
B13: GpH7-A5/GpH7-B3 variant T335_08L/GpL16-k0 (He Ab) (antibody, human IgG1, kappa)
heavy 1: not shown
heavy 2: not shown
light: B1 light
notes: as for B1
B14: GpH7-A5/GpH7-B3 variant T335_09D/GpL16-k0 (He Ab) (antibody, human IgG1, kappa)
heavy 1: not shown
heavy 2: not shown
light: B1 light
notes: as for B1
B15: GpH7-A5/GpH7-B3 variant Y296_20W/GpL16-k0 (He Ab) (antibody, human IgG1, kappa)
heavy 1: not shown
heavy 2: not shown
light: B1 light
notes: as for B1
B16: GpH7-A5/GpH7-B3 variant Y300_08L/GpL16-k0 (He Ab) (antibody, human IgG1, kappa)
heavy 1: not shown
heavy 2: not shown
light: B1 light
notes: as for B1
B17: GpH7-A5/GpH7-B3 variant H268_18N/GpL16-k0 (antibody, human IgG1, kappa)
heavy 1: not shown
heavy 2: not shown
light: B1 light
notes: Heterodimerized antibody (He Ab) with the mutation in only one H chain; also called He Ab H268N
B18: GpH7-A5/GpH7-B3 variant H268_20W/GpL16-k0 (antibody, human IgG1, kappa)
heavy 1: not shown
heavy 2: not shown
light: B1 light
notes: Heterodimerized antibody (He Ab) with the mutation in only one H chain; also called He Ab H268W
B19: GpH7-A5/GpH7-B3 variant P271_01G/GpL16-k0 (antibody, human IgG1, kappa)
heavy 1: not shown
heavy 2: not shown
light: B1 light
notes: Heterodimerized antibody (He Ab) with the mutation in only one H chain; also called He Ab P271G
B20: GpH7-A5/GpH7-B3 variant P271_08L/GpL16-k0 (antibody, human IgG1, kappa)
heavy 1: not shown
heavy 2: not shown
light: B1 light
notes: Heterodimerized antibody (He Ab) with the mutation in only one H chain; also called He Ab P271L
B21: GpH7-A5/GpH7-B3 variant S267_09D/GpL16-k0 (antibody, human IgG1, kappa)
heavy 1: not shown
heavy 2: not shown
light: B1 light
notes: Heterodimerized antibody (He Ab) with the mutation in only one H chain; also called He Ab S267D

Target: T1, FcγRIIIa (human, UniProt P08637 17-208)
T1 construct: extracellular domain; also called 3a; FcgRIIIa
Assay: SPR (Biacore), antibody captured on antigen-peptide chip, FcγR as analyte; binding of He Ab / binding of HeCon Ab GpH7-A5/GpH7-B3/GpL16-k0 x 100

T1 sequence (P08637 17-208): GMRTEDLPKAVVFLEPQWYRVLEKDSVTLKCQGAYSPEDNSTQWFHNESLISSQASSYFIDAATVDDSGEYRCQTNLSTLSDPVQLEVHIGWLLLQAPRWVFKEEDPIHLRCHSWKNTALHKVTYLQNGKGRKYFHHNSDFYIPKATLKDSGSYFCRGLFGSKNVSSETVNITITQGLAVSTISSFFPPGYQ

| Binder | He/Con_3a |
| --- | --- |
| B1 | 105 relative to control = 100 |
| B2 | 181 relative to control = 100 |
| B3 | 110 relative to control = 100 |
| B4 | 109 relative to control = 100 |
| B5 | 113 relative to control = 100 |
| B6 | 101 relative to control = 100 |
| B7 | 103 relative to control = 100 |
| B8 | 102 relative to control = 100 |
| B9 | 102 relative to control = 100 |
| B10 | 108 relative to control = 100 |
| B11 | 105 relative to control = 100 |
| B12 | 102 relative to control = 100 |
| B13 | 102 relative to control = 100 |
| B14 | 108 relative to control = 100 |
| B15 | 135 relative to control = 100 |
| B16 | 105 relative to control = 100 |

Target: T2, FcγRIIIa extracellular domain with C-terminal His tag (human, UniProt P08637 17-208)
T2 construct: extracellular domain; also called FcgRIIIa; 3a; not shown: His tag attached to the C terminus
Assay: SPR (Biacore); He/Con_3a (FcγRIIIa) divided by He/Con_2b (FcγRIIb)

T2 sequence (P08637 17-208): as above

| Binder | He_3a/2b (IIIa/IIb) [ratio] |
| --- | --- |
| B17 | 0.67 |
| B18 | 0.74 |
| B19 | 0.59 |
| B20 | 0.69 |
| B21 | 0.58 |

Target: T2, FcγRIIIa extracellular domain with …
Assay: SPR (Biacore T100), antibody captured on antigen peptide chip, FcγR as analyte
Method: (§1) Analysis of interaction between objective antibody and the FcγR was carried out using Biacore T100 (GE Healthcare). HBS-EP+ (GE Healthcare) was used as the running buffer, and the measurement temperature was set to 25° C. Chips produced by immobilizing the antigen peptide by the amine coupling method to a Series S Sencor Chip CM5 (GE Healthcare), or alternatively, chips produced by allowing preliminarily biotinylated antigen peptides to interact with and immobilize onto a Series S Sensor Chip SA (certified) (GE Healthcare) were used. Antibodies of interest were captured onto an antigen peptide-immobilized chip, and allowed to interact to each FcγR diluted with running buffer. To regenerate and repeatedly use the chip, the antibodies captured on the chip were washed off by reacting 10 mM glycine-HCl, pH 1.5.

| Binder | He/Con_3a |
| --- | --- |
| B17 | 104 relative binding, GpH7-A5/GpH7-B3/GpL16-k0 = 100 |
| B18 | 82.8 relative binding, GpH7-A5/GpH7-B3/GpL16-k0 = 100 |
| B19 | 113 relative binding, GpH7-A5/GpH7-B3/GpL16-k0 = 100 |
| B20 | 71 relative binding, GpH7-A5/GpH7-B3/GpL16-k0 = 100 |
| B21 | 181 relative binding, GpH7-A5/GpH7-B3/GpL16-k0 = 100 |

Target: T3, FcγRIIb extracellular domain with C-terminal His tag (human, UniProt P31994 43-217)
T3 construct: extracellular domain; Soluble receptor expressed in FreeStyle293 cells, used as analyte in Biacore; also called FcgRIIb; 2b; not shown: His tag attached to the C terminus
T3 sequence (looked up): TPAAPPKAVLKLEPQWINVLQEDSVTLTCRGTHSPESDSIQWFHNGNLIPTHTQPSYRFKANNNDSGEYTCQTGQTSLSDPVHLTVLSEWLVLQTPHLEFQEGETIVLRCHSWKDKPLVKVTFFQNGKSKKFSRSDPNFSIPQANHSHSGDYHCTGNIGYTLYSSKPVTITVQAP
Assay: as above
Method: as §1

| Binder | He/Con_2b |
| --- | --- |
| B17 | 156 relative binding, GpH7-A5/GpH7-B3/GpL16-k0 = 100 |
| B18 | 111 relative binding, GpH7-A5/GpH7-B3/GpL16-k0 = 100 |
| B19 | 193 relative binding, GpH7-A5/GpH7-B3/GpL16-k0 = 100 |
| B20 | 103 relative binding, GpH7-A5/GpH7-B3/GpL16-k0 = 100 |
| B21 | 310 relative binding, GpH7-A5/GpH7-B3/GpL16-k0 = 100 |
